Measured values as given in PMC8654365.

Key:
[1] = molecular target: HA-tagged RON (Recepteur d'Origine Nantais, MST1R) stably expressed in A431 cells (human); assay: two-colour single quantum dot tracking with two-state hidden Markov model; live A431^RON cells; 200 pM anti-HA-QD655 on HA-RON, then 50 pM QD605-conjugated EGF-biotin on endogenous EGFR; 34–36 °C, 20 frames per s; off-rate of hetero-interactions
[2] = molecular target: HA-tagged RON (Recepteur d'Origine Nantais, MST1R) stably expressed in A431 cells (human); assay: two-colour single quantum dot tracking with two-state hidden Markov model; live A431^RON cells, no ligand; HA-RON labelled with a mixture of anti-HA-QD605 and anti-HA-QD655 (monovalent Fab); 34–36 °C, 20 frames per s; off-rate of RON/RON homo-interactions

HA-tagged RON (Recepteur d'Origine Nantais, MST1R) stably expressed in A431 cells (human), sequence (Q04912 25-304 limits assumed, chain 1 of 2): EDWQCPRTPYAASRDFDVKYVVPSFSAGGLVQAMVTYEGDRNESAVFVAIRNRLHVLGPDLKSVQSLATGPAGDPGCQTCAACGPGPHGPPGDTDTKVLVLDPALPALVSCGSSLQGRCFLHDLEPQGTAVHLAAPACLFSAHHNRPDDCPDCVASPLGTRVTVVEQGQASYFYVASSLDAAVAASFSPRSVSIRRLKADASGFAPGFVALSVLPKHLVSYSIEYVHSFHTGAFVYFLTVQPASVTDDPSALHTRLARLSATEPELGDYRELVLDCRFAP
HA-tagged RON (Recepteur d'Origine Nantais, MST1R) stably expressed in A431 cells (human), sequence (Q04912 310-1400 limits assumed, chain 2 of 2): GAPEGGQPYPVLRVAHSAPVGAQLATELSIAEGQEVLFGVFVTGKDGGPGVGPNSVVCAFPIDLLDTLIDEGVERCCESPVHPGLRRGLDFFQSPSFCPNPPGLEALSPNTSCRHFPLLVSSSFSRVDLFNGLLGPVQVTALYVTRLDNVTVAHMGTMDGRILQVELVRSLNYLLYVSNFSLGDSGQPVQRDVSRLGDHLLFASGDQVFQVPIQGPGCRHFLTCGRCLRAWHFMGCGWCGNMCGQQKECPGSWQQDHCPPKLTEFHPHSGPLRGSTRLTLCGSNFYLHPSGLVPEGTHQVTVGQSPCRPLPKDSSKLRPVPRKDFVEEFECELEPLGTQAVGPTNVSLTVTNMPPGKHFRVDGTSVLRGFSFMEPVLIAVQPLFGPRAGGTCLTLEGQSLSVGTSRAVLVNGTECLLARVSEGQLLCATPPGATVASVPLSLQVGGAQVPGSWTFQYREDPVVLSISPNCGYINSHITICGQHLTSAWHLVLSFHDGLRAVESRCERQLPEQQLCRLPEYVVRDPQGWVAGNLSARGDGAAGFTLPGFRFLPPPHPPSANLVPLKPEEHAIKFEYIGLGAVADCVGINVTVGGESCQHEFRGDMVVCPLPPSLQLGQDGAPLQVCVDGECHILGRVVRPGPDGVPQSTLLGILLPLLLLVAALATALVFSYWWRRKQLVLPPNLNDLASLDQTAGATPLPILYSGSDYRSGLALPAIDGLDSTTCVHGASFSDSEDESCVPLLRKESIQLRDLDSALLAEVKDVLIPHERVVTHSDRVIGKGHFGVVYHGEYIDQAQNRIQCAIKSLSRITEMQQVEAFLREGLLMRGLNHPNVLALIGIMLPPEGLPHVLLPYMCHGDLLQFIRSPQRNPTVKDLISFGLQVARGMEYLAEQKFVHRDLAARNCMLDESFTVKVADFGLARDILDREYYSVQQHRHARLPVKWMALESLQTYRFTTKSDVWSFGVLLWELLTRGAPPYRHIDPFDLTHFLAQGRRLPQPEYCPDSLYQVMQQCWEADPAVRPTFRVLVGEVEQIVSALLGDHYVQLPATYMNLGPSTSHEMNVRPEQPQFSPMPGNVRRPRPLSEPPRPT

Substance	average lifetime [1]	koff [1]	average lifetime [2]	koff [2]
EGF-bound EGFR (QD-conjugated EGF-biotin on endogenous EGFR of live A431^RON cells) (from UniProt P00533 25-1210) (complex)	2 s	0.49 s⁻¹	–	–
HA-tagged RON (Recepteur d'Origine Nantais, MST1R) stably expressed in A431 cells (receptor)	–	–	5.5 s	0.18 s⁻¹
